Assay results published in IntAct's records for PubMed 24132237.

Target: wasf2_human WASF2 (UniProt Q9Y6W5)

Ras-related C3 botulinum toxin substrate 1 (Homo sapiens) (from UniProt P63000-1) Q61L
effect of a mutation on the interaction: increasing interaction strength
